In KR20150077891A (dated 2015):

How the values were obtained:
[1] = target: T1, WRS (tryptophanyl-tRNA synthetase), purified recombinant antigen / standard (human, UniProt P23381 1-471, limits assumed); assay: SPR (ProteOn XPR36), WRS amine-coupled to GLC chip, scFv 500-30 nM as analyte, 25 C
T1 construct: The recombinant construct used for panning, SPR, Luminex beads and ELISA is not described; also called WRS 항원; 재조합 WRS 표준물질
T1 sequence (looked up): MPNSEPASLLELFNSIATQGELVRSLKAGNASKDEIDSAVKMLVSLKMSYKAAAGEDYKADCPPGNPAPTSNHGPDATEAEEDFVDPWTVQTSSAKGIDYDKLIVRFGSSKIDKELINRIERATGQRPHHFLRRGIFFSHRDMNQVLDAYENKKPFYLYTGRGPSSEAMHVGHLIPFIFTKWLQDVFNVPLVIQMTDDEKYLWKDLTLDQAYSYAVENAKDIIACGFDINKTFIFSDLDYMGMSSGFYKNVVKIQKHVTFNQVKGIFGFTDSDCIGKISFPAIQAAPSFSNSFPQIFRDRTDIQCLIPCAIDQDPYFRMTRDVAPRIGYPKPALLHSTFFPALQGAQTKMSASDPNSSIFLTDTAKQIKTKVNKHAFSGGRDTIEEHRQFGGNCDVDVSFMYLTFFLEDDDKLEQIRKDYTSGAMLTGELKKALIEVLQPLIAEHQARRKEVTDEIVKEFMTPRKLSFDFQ

[2] = target: T2, AIMP1 (Aminoacyl-tRNA-synthetase-interacting multifunctional protein 1), recombinant (UniProt Q12904 1-312, limits assumed); assay: Luminex multiplex bead assay, antigen coupled to beads, anti-HA-biotin / SA-PE detection
T2 construct: also called p43; AIMP1(p43)
T2 sequence (looked up): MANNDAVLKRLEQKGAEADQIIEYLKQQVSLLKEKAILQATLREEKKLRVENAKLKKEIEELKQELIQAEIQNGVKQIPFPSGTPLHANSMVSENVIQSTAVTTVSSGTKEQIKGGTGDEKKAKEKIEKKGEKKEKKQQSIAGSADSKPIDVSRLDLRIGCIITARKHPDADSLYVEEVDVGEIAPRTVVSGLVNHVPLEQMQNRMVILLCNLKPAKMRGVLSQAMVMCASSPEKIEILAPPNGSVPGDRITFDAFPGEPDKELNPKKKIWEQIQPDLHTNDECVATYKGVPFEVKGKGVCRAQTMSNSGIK

[3] = target: T3, HRS (Histidyl-tRNA synthetase), recombinant (UniProt P12081 1-509, limits assumed); assay: as above
T3 construct: also called 히스티딜-tRNA 합성효소
T3 sequence (looked up): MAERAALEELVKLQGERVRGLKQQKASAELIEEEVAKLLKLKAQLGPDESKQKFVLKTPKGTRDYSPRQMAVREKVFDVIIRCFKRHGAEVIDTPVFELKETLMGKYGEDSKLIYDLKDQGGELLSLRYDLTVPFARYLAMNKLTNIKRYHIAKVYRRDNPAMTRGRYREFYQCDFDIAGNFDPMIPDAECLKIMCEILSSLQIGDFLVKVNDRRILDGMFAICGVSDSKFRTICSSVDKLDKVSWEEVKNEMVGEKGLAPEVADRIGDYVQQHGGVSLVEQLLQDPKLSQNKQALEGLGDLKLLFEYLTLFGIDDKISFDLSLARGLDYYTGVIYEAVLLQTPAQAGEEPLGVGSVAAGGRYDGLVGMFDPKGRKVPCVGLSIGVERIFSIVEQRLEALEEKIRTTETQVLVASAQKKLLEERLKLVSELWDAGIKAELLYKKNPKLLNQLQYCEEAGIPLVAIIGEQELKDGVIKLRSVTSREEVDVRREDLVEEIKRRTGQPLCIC

[4] = target: T4, NRS (Asparaginyl-tRNA synthetase), recombinant (UniProt O43776 1-548, limits assumed); assay: as above
T4 construct: also called 아스파라기닐딜-tRNA 합성효소
T4 sequence (looked up): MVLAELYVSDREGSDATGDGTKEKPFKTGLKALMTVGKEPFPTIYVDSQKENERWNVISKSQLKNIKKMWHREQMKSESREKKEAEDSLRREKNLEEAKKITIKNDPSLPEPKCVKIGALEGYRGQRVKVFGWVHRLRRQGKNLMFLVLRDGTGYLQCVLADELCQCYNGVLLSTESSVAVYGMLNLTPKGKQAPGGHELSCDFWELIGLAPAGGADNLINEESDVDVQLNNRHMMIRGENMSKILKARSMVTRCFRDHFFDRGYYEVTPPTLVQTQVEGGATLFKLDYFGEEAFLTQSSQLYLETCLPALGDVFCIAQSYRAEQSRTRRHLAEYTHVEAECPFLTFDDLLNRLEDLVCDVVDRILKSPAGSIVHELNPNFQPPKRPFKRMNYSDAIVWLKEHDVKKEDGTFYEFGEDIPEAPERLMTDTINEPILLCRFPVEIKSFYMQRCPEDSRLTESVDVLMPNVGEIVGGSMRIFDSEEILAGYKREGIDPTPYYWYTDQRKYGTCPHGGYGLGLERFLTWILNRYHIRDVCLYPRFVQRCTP

[5] = target: T5, KRS (Lysyl-tRNA synthetase), recombinant (UniProt Q15046 1-597, limits assumed); assay: as above
T5 construct: also called 리실-tRNA 합성효소

[6] = target: T6, SRS (Seryl-tRNA synthetase), recombinant (UniProt P49591 1-514, limits assumed); assay: as above
T6 construct: also called 세릴-tRNA 합성효소

[7] = target: T7, YRS (Tyrosyl-tRNA synthetase), recombinant (UniProt P54577 1-528, limits assumed); assay: as above
T7 construct: also called 타이로실-tRNA 합성효소
T7 sequence (looked up): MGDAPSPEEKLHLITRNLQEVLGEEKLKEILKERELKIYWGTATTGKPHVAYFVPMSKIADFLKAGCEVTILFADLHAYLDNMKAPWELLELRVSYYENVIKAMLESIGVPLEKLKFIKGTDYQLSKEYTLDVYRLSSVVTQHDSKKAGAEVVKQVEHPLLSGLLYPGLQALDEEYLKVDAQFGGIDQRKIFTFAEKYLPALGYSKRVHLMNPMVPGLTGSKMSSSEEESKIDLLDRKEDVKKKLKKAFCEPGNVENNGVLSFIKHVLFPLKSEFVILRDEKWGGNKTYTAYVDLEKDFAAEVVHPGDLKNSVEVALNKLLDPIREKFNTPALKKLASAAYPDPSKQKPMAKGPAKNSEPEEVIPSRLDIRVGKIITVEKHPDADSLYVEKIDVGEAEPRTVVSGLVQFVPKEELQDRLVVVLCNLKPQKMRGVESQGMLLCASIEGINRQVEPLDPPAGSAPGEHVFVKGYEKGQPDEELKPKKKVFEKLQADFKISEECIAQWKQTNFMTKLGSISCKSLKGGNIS

[8] = target: T8, GRS (Glycyl-tRNA synthetase), recombinant (UniProt P41250 55-739, limits assumed); assay: as above
T8 construct: also called 글리실-tRNA 합성효소
T8 sequence (looked up): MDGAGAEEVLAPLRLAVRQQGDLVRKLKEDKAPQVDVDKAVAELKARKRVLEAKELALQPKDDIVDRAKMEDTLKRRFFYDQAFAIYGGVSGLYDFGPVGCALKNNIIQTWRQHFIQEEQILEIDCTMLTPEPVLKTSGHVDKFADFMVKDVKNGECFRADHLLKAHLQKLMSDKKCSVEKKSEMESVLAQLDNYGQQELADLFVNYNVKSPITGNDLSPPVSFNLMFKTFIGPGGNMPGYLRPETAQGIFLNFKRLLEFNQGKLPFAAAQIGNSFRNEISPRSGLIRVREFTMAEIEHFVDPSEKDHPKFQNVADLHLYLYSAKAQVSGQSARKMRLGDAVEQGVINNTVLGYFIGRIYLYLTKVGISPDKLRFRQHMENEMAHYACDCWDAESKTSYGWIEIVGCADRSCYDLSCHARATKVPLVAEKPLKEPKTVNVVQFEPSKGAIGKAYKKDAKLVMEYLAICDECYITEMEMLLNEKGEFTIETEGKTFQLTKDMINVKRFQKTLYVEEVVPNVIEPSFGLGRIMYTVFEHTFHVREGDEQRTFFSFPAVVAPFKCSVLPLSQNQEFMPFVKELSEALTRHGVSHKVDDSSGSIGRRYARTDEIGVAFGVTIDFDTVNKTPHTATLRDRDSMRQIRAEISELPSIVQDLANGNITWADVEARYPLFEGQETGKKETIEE

T5 sequence (Q15046 whole entry): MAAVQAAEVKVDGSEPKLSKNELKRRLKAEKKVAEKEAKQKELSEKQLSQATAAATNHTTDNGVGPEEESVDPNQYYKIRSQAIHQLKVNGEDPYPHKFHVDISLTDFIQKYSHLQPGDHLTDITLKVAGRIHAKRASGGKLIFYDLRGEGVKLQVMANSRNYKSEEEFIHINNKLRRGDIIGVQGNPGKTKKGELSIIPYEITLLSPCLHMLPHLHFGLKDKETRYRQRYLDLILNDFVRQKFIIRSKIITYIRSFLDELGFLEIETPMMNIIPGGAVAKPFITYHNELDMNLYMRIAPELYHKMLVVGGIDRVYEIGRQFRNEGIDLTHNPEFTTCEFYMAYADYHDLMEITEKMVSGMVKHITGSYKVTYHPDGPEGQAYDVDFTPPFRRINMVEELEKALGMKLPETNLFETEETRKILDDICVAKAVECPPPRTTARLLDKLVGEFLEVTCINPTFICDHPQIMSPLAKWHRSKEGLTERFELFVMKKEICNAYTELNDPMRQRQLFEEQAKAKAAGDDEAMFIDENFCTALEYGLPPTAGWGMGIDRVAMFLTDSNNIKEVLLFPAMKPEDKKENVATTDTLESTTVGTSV
T6 sequence (P49591 whole entry): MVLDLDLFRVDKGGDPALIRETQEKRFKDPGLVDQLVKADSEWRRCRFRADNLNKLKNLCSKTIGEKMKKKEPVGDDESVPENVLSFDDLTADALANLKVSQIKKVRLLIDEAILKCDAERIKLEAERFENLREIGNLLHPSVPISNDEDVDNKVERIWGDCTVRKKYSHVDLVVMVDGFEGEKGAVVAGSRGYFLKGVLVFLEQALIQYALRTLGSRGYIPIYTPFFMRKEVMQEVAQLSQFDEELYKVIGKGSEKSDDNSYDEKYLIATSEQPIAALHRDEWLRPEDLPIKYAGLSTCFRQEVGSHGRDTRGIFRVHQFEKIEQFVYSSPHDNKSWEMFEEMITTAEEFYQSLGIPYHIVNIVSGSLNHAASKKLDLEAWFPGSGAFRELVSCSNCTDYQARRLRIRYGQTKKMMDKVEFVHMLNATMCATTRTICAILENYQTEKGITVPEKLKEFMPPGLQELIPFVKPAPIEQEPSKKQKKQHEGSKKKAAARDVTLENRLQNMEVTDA

B1: anti-WRS scFv Biocon-W1 (scFv)
scFv: EVQLLESGGGLVQPGGSLRLSCAASGLAFSDYYMSWVRLAPGKGLEWVSVISPGSGSKYYADSVRGRFTVSRDNSKNTLYLQMNSLRAEDTAVYYCARKNQAFDYWGQGTLVTVSSGGGGSGGGGSGGGGSQSVLTQPPSASGTPGQRVTISCTGSSSNIGSNYVTWYQQLPGTAPKLLIYANSQRPSGVPDRFSGSKSGTSASLAISGLRSEDEADYYCASWDASLSGYVFGGGTKLTVL
notes: Single clone selected from a human VH3-23/VL1g synthetic scFv phage library and expressed in the E. coli periplasm; also called 항 WRS scFv 항체; 본 발명의 항체; not shown: His and HA tags from the pComb3X vector, implied by Ni-NTA purification and anti-HA detection
With B1 the Kd [1] was 700 nM, the binding result [2] was “no binding” and the binding result [3] was “no binding”. B1: no binding [4]; no binding [5]; no binding [6]. B1: no binding [7]; no binding [8].
